These results are taken from PMC9524272 (Frontiers in Immunology, 2022).

The target in assay [1] is SARS-CoV-2 spike receptor binding domain, Wuhan-Hu-1 (WT) (SARS-CoV-2 Wuhan-Hu-1, UniProt P0DTC2).
Assay [2] concerns the target SARS-CoV-2 spike receptor binding domain, Beta B.1.351 (SARS-CoV-2 Beta B.1.351 (on Wuhan-Hu-1 …, strain)).
The target of assay [3] is SARS-CoV-2 spike receptor binding domain, Delta B.1.617.2 (SARS-CoV-2 Delta B.1.617.2 (on …, strain)).
The target in assay [4] is SARS-CoV-2 spike receptor binding domain, Omicron BA.1 (IPBCAMS-OM01/2021) (SARS-CoV-2 Omicron BA.1, isolate …, strain).
For assay [5], the target named is SARS-CoV-2 Spike RBD Omicron BA.4&BA.5 (SARS-CoV-2 Omicron BA.4/BA.5, strain).

B1: H7 (VHH)
VHH: QVQLVESGGGLVQPGGSLRLSCAASGYSYRSTYYLGWFRQAPGQGLEAVAAIYGAGSTYYADSVKGRFTISRDNSKNTLYLQMNSLRAEDTAVYYCAAGDESTRGYGYSWDYWGQGTLVTVSS
The Kd is the equilibrium constant for the complex coming apart. The low end stands for higher affinity, the high end for lower affinity. For B1, the Kd in assay [1] was 4.4 nM; in assay [2], 3.7 nM; in assay [3], 7.2 nM. The binding result in assay [4] and in assay [5] was “binds” in each case.
